Laboratory results: US20220048967A1 (published 2022)
Substitutions are numbered along the chain they refer to.

B1: Example 378 (peptide)
peptide: XXEGTFTSDYSIXLDKKAQXEFIEYLIAGGPSSGAPPPS
modifications: D-Tyr1, Aib2, αMeL13, K17 conjugated to (2-[2-(2-Amino-ethoxy)-ethoxy]-acetyl)-(γ-Glu)-CO-(CH2)18-CO2H, Aib20, C-terminal amide (NH2)
B2: Example 373 (peptide)
peptide: B1 peptide with E21A, Y25X
modifications: D-Tyr1, Aib2, αMeL13, K17 conjugated to (2-[2-(2-Amino-ethoxy)-ethoxy]-acetyl)-(γ-Glu)-CO-(CH2)18-CO2H, Aib20, αMeY25, C-terminal amide (NH2)
B3: Example 381 (peptide)
peptide: B1 peptide with K16E, E21A, Y25X
modifications: D-Tyr1, Aib2, αMeL13, K17 conjugated to (2-[2-(2-Amino-ethoxy)-ethoxy]-acetyl)2-(γ-Glu)-CO-(CH2)18-CO2H, Aib20, αMeY25, C-terminal amide (NH2)
B4: Example 371 (peptide)
peptide: B1 peptide with K16X
modifications: D-Tyr1, Aib2, αMeL13, Orn16, K17 conjugated to (2-[2-(2-Amino-ethoxy)-ethoxy]-acetyl)-(γ-Glu)-CO-(CH2)18-CO2H, Aib20, C-terminal amide (NH2)
B5: Example 376 (peptide)
peptide: B1 peptide with E21A, Y25X
modifications: D-Tyr1, Aib2, αMeL13, K17 conjugated to (2-[2-(2-Amino-ethoxy)-ethoxy]-acetyl)2-(γ-Glu)-CO-(CH2)16-CO2H, Aib20, αMeY25, C-terminal amide (NH2)
B6: Example 377 (peptide)
peptide: B1 peptide with K16X, E21A, Y25X
modifications: D-Tyr1, Aib2, αMeL13, Orn16, K17 conjugated to (2-[2-(2-Amino-ethoxy)-ethoxy]-acetyl)2-(γ-Glu)-CO-(CH2)16-CO2H, Aib20, αMeY25, C-terminal amide (NH2)
B7: Example 368 (peptide)
peptide: B1 peptide with K16X
modifications: D-Tyr1, Aib2, αMeL13, Orn16, K17 conjugated to (2-[2-(2-Amino-ethoxy)-ethoxy]-acetyl)2-(γ-Glu)-CO-(CH2)16-CO2H, Aib20, C-terminal amide (NH2)
B8: Example 369 (peptide)
peptide: B1 peptide with K16X, E21D
modifications: D-Tyr1, Aib2, αMeL13, Orn16, K17 conjugated to (2-[2-(2-Amino-ethoxy)-ethoxy]-acetyl)2-(γ-Glu)-CO-(CH2)18-CO2H, Aib20, C-terminal amide (NH2)
B9: Example 365 (peptide)
peptide: B1 peptide with E21A, Y25X
modifications: D-Tyr1, Aib2, αMeL13, K17 conjugated to (2-[2-(2-Amino-ethoxy)-ethoxy]-acetyl)2-(γ-Glu)-CO-(CH2)18-CO2H, Aib20, αMeY25, C-terminal amide (NH2)
B10: Example 379 (peptide)
peptide: B1 peptide with Y25X, A28E
modifications: D-Tyr1, Aib2, αMeL13, K17 conjugated to (2-[2-(2-Amino-ethoxy)-ethoxy]-acetyl)2-(γ-Glu)-CO-(CH2)18-CO2H, Aib20, αMeY25, C-terminal amide (NH2)
B11: Example 370 (peptide)
peptide: XXEGTFTSDYSIXLDXKAQXEFIEYLIAGGPSSG
modifications: D-Tyr1, Aib2, αMeL13, Orn16, K17 conjugated to (2-[2-(2-Amino-ethoxy)-ethoxy]-acetyl)2-(γ-Glu)-CO-(CH2)18-CO2H, Aib20, C-terminal amide (NH2)
B12: Example 292 (peptide)
peptide: B1 peptide with Y25X
modifications: D-Tyr1, Aib2, αMeL13, K17 conjugated to (2-[2-(2-Amino-ethoxy)-ethoxy]-acetyl)2-(γ-Glu)-CO-(CH2)18-CO2H, Aib20, αMeY25, C-terminal amide (NH2)
B13: Example 374 (peptide)
peptide: B1 peptide with Y25X
modifications: D-Tyr1, Aib2, αMeL13, K17 conjugated to (2-[2-(2-Amino-ethoxy)-ethoxy]-acetyl)2-(γ-Glu)-CO-(CH2)16-CO2H, Aib20, αMeY25, C-terminal amide (NH2)
B14: Example 367 (peptide)
peptide: B1 peptide with X1Y, Y25X
modifications: Aib2, αMeL13, K17 conjugated to (2-[2-(2-Amino-ethoxy)-ethoxy]-acetyl)2-(γ-Glu)-CO-(CH2)18-CO2H, Aib20, αMeY25, C-terminal amide (NH2)
B15: Example 372 (peptide)
peptide: B1 peptide with Y25X
modifications: D-Tyr1, Aib2, αMeL13, K17 conjugated to (2-[2-(2-Amino-ethoxy)-ethoxy]-acetyl)-(γ-Glu)-CO-(CH2)18-CO2H, Aib20, αMeY25, C-terminal amide (NH2)

What follows are binders tested against human GLP-1 receptor (human, UniProt P43220 24-463) (assay: cell-based or functional assay).
Throughout, for hGLP1R B-Arrestin2 % Top: reference of the scale not given here.
Throughout, for hGLP1R GTPgS % Top: reference of the scale not given here.

Row | Binder | hGLP1R GTPgS % Top [%] | hGLP1R GTPgS Rel EC50 [nM]
1 | B1 | 68.6 | 0.359
2 | B2 | 65.6 | 0.336
3 | B3 | 73.6 | 0.273
4 | B4 | 62.5 | 0.27
5 | B5 | 72.6 | 0.326
6 | B6 | 68.4 | 0.356
7 | B7 | 68.9 | 0.495
8 | B8 | 58.8 | 0.381
9 | B9 | 66.9 | 0.464
10 | B10 | 71 | 0.239
11 | B11 | 63.7 | 0.428
12 | B12 | 71.5 | 0.429
13 | B13 | 67.1 | 0.345
14 | B14 | 89.7 | 0.289
15 | B15 | 69.1 | 0.379

Each binder was assayed against Pro-Link-tagged Human GLP-1R (human, UniProt P43220 24-463) (assay: cell-based or functional assay).

Row | Binder | hGLP1R B-Arrestin2 Rel EC50 [µM] | hGLP1R B-Arrestin2 % Top [%]
16 | B1 | > 10.2 | –
17 | B2 | 0.00954 | 22.9
18 | B3 | 0.0155 | 25.8
19 | B4 | 0.0142 | 21.7
20 | B5 | 0.0123 | 25.6
21 | B6 | 0.00532 | 16.7
22 | B7 | 0.0479 | 21.3
23 | B8 | 0.0414 | 19.9
24 | B9 | 0.00703 | 20.8
25 | B10 | 0.0181 | 31.9
26 | B11 | 0.0099 | 23
27 | B12 | 0.00774 | 29
28 | B13 | 0.0218 | 34.7
29 | B14 | 0.00666 | 70.6
30 | B15 | 0.00981 | 32.9
